pKd, pKi: −log10 of the molar value. “And” between values parts separate entries of the source, which are not always exact repeats. Identical values can stand only once. “Also recorded” adds a separate entry of the source. Like-named read-outs stand apart in the source and are kept apart here. Where no end group is shown, it is not given here. [ ]: non-standard residue; d: D form. The star is where a group is joined. Nle = CCCC[C@H](N)C(=O)O; 125I = [125I]*
How the values were obtained:
[1] = target: GHRH receptor (GHRH-R); assay: 125I-GHRHa binding assay in crude anterior pituitary membrane pellets; parameters: species or system ovine; conditions: for competition for the 125I-GHRHa binding site: 100 nM competing peptide; for displacement of GHRH in ovine pituitary: at 500 nM
Protocol: Specific binding is defined as the difference in the binding seen with 20 pM iodinated analog alone and binding of the analog in the presence of 10 nM non-iodinated GHRHa.
All steps were performed at 4° C. Frozen ovine or bovine anterior pituitaries (ovine: approximately 1 gm/pituitary obtained from Dr. Ian Clarke, Melbourne, Australia; bovine: approximately 2.5 gm/pituitary special handling from Pel-Freez, of Rogers, Ark.) were washed of blood, cleaned of connective tissue and homogenized (using a Dounce homogenizer) in 50 mM HEPES buffer, 100 mM NaCl, 10 mM EDTA, 0.1 μM EGTA, pH 7.4 with 0.5 mM PMSF (phenyl methyl sulfonyl fluoride), 10 μg/ml leupeptin, 10 μg/ml pepstatin A, and 200 U/ml (units/ml) aprotinin. This buffer is used to remove endogenous GTP which might be bound to G proteins and to restore high affinity binding. The homogenate was spun at top speed in a microfuge and the supernatant discarded. The upper (membrane) layer of the pellet was then gently resuspended in binding buffer containing 50 mM Tris buffer, 5 mM EGTA, 5 mM MgCl2, 50 μg/ml alamethicin, 30 μg/ml bacitracin and other protease inhibitors as above.
1/50 pituitary equivalent per tube was incubated in binding buffer with approximately 100,000 counts of iodinated probe in a volume of 500 μl at room temperature for 1 hour. The total counts delivered and the percent of counts bound for each tube was determined with 3 to 6 replicates per experimental condition. Saturation binding profiles were analyzed with the computer program Ligand which performs a statistically weighted least squares fit to the exact ligand binding equation in nontransformed coordinates.

[2] = tested on: GHRH-R (55 kDa band); assay: Photoaffinity cross-linking / photoprobe binding in pituitary membrane pellets (gamma counting, SDS-PAGE autoradiography); parameters: species or system ovine
Protocol: Photoprobe binding in ovine pituitary membrane pellets was determined by γ-counting and UV induced cross-linking was examined by autoradiography of sodium dodecylsulfate polyacrylamide electrophoresis (SDS-PAGE) gels. ^125 I-GHRHa -ANB-NOS probe bound with an affinity of about one nanomole, nM (compared to about 160 picomole, pM, for GHRHa).
Photoprobe binding to membranes was evaluated with crude membrane binding assay and then analyzed further by SDS-PAGE electrophoresis to identify the binding sites. Photoprobes were incubated in the dark, photolysed for 10 minutes with a long wave (366 nm) UV lamp, and then the samples were pelleted. The pellets were counted and then extracted by boiling directly in SDS sample buffer (total SDS extracts). Alternatively, the labeled pellets were extracted in a mild detergent solution (5 mM CHAPS) centrifuged, and the chloroform/methanol concentrated supernatants denatured with SDS buffer (CHAPS extracts). These samples were then electrophoresed in SDS gels and autoradiographed.

[3] = target: T1, GHRH-R encoded by HAP 7 cDNA (Homo sapiens, UniProt Q02643); assay: Iodinated GHRH binding to COS cell membranes transfected with pCDM8 containing HAP 7 cDNA; conditions: for effect on binding of iodinated GHRH: 100 nM peptide, HAP transfected COS cells or membranes
T1 construct: expressed in transfected cells; host or cells: Cos-1 cells (membranes), pCDM8 vector
T1 sequence (Q02643 23-423): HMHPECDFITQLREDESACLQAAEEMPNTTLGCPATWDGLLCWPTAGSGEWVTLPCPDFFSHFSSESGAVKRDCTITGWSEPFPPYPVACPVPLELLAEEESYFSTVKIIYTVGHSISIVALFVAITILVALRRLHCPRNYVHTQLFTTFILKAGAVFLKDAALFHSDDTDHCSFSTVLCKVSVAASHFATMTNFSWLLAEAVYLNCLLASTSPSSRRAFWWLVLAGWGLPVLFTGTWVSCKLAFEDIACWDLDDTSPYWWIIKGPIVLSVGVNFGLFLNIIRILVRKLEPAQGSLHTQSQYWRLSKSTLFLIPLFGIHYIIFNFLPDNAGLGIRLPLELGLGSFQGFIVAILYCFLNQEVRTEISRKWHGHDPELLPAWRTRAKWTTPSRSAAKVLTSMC
Protocol: Cos-1 cells were transfected with the vector formed by splicing pCDM8 and HAP cDNA, and Cos-1 cell membranes were prepared 72 hours subsequently. Cos-1 cells were transfected using 10 μg of plasmid DNA per 6×10^5 cells in a 100-mm dish using the DEAE-dextran method described by Cullen. […] COS cell cultures were transfected in parallel with pCDM8 containing a cDNA encoding the rat AT1 angiotensin II receptor.

[4] = target: T2, secretin and VIP receptors (Homo sapiens, UniProt P47872); conditions: at 10 μM; cited from earlier work
T2 construct: host or cells: human pancreas tissue
T2 sequence (P47872 23-440): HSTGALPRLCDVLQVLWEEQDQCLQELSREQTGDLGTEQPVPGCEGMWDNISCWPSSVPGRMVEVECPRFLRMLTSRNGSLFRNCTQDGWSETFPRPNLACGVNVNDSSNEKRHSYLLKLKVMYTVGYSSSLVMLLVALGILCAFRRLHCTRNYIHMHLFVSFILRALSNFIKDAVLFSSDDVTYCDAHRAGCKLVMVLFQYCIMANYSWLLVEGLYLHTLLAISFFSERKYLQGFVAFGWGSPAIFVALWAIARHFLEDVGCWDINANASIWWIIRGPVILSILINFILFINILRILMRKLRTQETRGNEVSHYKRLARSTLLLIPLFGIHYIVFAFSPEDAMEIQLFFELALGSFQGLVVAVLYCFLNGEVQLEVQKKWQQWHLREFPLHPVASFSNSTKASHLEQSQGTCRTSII

[5] = target: dibiotinylated GHRHa (human) (UniProt P01286); assay: binding of iodinated biotinylated GHRHa forms to immobilized streptavidin, through the biotin group
[6] = target: monobiotinylated GHRHa (human) (UniProt P01286); assay: as above
[7] = target: human GHRH receptor encoded by HAP 7.3 cDNA (human); assay: competition with iodinated GHRH analog, membranes of COS cells transfected with HAP 7 (FIG. 16)
[8] = target: ovine pituitary growth hormone releasing hormone receptor (ovine); assay: displacement of GHRH and its analogs, ovine anterior pituitary tissue
[9] = target: bovine pituitary GHRH receptor (bovine) (UniProt Q9TUJ0); assay: displacement of GHRH and its analogs, bovine anterior pituitary tissue
[10] = target: ovine pituitary growth hormone releasing hormone receptor (ovine); assay: saturation binding analysed with the program Ligand, crude pituitary membrane pellets
[11] = target: ovine pituitary growth hormone releasing hormone receptor (ovine); assay: binding and displacement of iodinated GHRH analog, ovine pituitary membranes (FIG. 17)
[12] = target: ovine pituitary growth hormone releasing hormone receptor (ovine); assay: saturation binding with increasing unlabeled GHRHa, crude pituitary membrane pellets (FIG. 2)
[13] = target: ovine pituitary growth hormone releasing hormone receptor (ovine); assay: saturation binding analysed with the program Ligand, crude pituitary membrane pellets (FIG. 2)
[14] = target: pituitary GHRH receptor (ovine or bovine, not said which at the place); assay: charcoal-dextran binding assay on pituitary membrane preparations solubilized in CHAPS without prebound ligand; the ligand is not named

## GHRH: growth hormone releasing hormone; the competitor in FIG. 17 is GHRHa
[1]; ovine pituitary membranes, displacement data of FIG. 17, read-out: KD for GHRH binding in pituitary
  pKd: 9.70

## [His 1, Nle27, Biotin-Lys4 1 ]-GHRH-(1-41)-NH2 [GHRHb]
[1]
  receptor binding affinity compared to GHRHa: comparable to GHRHa

## vasoactive intestinal peptide [VIP]
[1]
  competition for the 125I-GHRHa binding site: no competition; also recorded: did not compete
  displacement of GHRH in ovine pituitary: not
[2]; 100 nM VIP
  effect on photo-cross-linked 55 kDa band: unaffected
[3]
  effect on binding of iodinated GHRH: unaffected; also recorded: no effect
[4]
  inhibition of 125I-secretin binding: 20%

## Nc1nc2c(ncn2[C@@H]2O[C@H](COP(=O)(O)OP(=O)(O)OP(O)(O)=S)[C@@H](O)[C@H]2O)c(=O)[nH]1 [GTPγS]
[2]; 50 μM GTPγS
  displacement of both photoprobes from membrane pellets: partially displaced

## immobilized streptavidin (from UniProt P22629) (tool reagent)
[5]
  percent of product bound: > 90%
[6]
  percent of product bound: > 90%

## PACAP (pituitary adenylate cyclase activating peptide)
[7]
  pKi: 7.52

## monobiotinylated GHRHa: GHRHa biotinylated at lysine 12 or 21 with NHS-LC-Biotin, mono form resolved on HPLC (YADAIFTNSY(iodo)RKVLGQLSARKLLQDI[Nle]SRQQG-NH2; also: NHS-LC-Biotin on one of lysines 12 and 21)
[1]
  receptor binding affinity compared to GHRHa: two-fold reduced

## C[C@H](N)C(=O)NCC(=O)N[C@H]1CSSC[C@@H](C(=O)O)NC(=O)[C@H](CO)NC(=O)[C@H]([C@@H](C)O)NC(=O)[C@H](Cc2ccccc2)NC(=O)[C@H]([C@@H](C)O)NC(=O)[C@H](CCCCN)NC(=O)[C@H](Cc2c[nH]c3ccccc23)NC(=O)[C@H](Cc2ccccc2)NC(=O)[C@H](Cc2ccccc2)NC(=O)[C@H](CC(N)=O)NC(=O)[C@H](CCCCN)NC1=O [somatostatin]
[3]
  effect on binding of iodinated GHRH: unaffected

## [His^1, Nle^27 ]-GHRH-(1-32)-NH2 [GHRHa]
[1]; crude ovine pituitary membranes, program Ligand, read-out: Kd, saturation binding to a single high affinity site
  pKd: 9.80 and ~9.80
[2]; 10 nM GHRHa
  displacement of both photoprobes from membrane pellets: totally displaced
[2]; 10 nM GHRHa, 125I-GHRHa-ANB-NOS probe
  effect on photo-cross-linked 55 kDa band: completely eliminated

## His^1, ^125 I-Tyr^10,Nle^27 human GHRH(1-29)NH2
[3]; not seen in angiotensin receptor cDNA transfected COS cells
  binding of radioligand to HAP cDNA transfected COS cell membranes: specific, high-affinity binding

## PHM: competing peptide of the VIP family (HADGVFTSDFSKLLGQLSAKKYLESLM; ends and bridges not checked; UniProt P01282 81-107, looked up)
[3]
  effect on binding of iodinated GHRH: unaffected

## secretin
[3]
  effect on binding of iodinated GHRH: unaffected

## ^125 I-GHRHa -ANB-NOS: GHRHa coupled to N-5-azido-2-nitrobenzoyloxysuccinimide at lysine 12 or 21, then iodinated; photoprobe (YADAIFTNSY(125I)RKVLGQLSARKLLQDI[Nle]SRQQG-NH2; also: N-5-azido-2-nitrobenzoyl (ANB-NOS) on lysine 12 or 21)
[2]; ovine pituitary membrane pellets, gamma-counting
  affinity of photoprobe binding: about one

## [His1, Nle27]-GHRH-(1-32)-NH2 (from UniProt P01286) (peptide)
[8]
  fold lower displacing concentration than VIP or PACAP: 500 fold and 1000 fold
[9]
  fold lower displacing concentration than VIP or PACAP: 500 fold and 1000 fold
[10]
  pKd: 9.80
[11]
  pKd: 9.70
[12]
  pKd: 9.80
[13]
  pKd: 9.82
[14]
  pKd: 6.30

## GHRH(1-29)-NH2
[4]
  inhibition of 125I-secretin binding: 20%

## O[C@H](CS)[C@H](O)CS (racemic) [dithiothreitol]
[1]; preincubation with 1 mM
  effect on specific binding in the GHRH assay: completely eliminated

## calcitonin
[3]
  effect on binding of iodinated GHRH: unaffected

## ^125 I-GHRHa: radioiodinated GHRHa probe, monoiodinated and HPLC purified (YADAIFTNSY(125I)RKVLGQLSARKLLQDI[Nle]SRQQG-NH2)
[1]
  comparison with commercially available iodinated human GHRH: slightly better specific binding

## parathyroid hormone
[3]
  effect on binding of iodinated GHRH: unaffected

## CC[C@H](C)[C@H](NC(=O)CNC(=O)[C@H](CC(=O)O)NC(=O)[C@H](CO)NC(=O)[C@@H](N)Cc1c[nH]cn1)C(=O)N[C@@H](Cc1ccccc1)C(=O)N[C@H](C(=O)N[C@@H](CC(=O)O)C(=O)N[C@@H](CO)C(=O)N[C@@H](Cc1ccc(O)cc1)C(=O)N[C@@H](CO)C(=O)N[C@@H](CCCNC(=N)N)C(=O)N[C@@H](Cc1ccc(O)cc1)C(=O)N[C@@H](CCCNC(=N)N)C(=O)N[C@@H](CCCCN)C(=O)N[C@@H](CCC(N)=O)C(=O)N[C@@H](CCSC)C(=O)N[C@@H](C)C(=O)N[C@H](C(=O)N[C@@H](CCCCN)C(=O)N[C@@H](CCCCN)C(=O)N[C@@H](Cc1ccc(O)cc1)C(=O)N[C@@H](CC(C)C)C(=O)N[C@@H](C)C(=O)N[C@@H](C)C(=O)N[C@H](C(=O)N[C@@H](CC(C)C)C(=O)NCC(=O)N[C@@H](CCCCN)C(=O)N[C@@H](CCCNC(=N)N)C(=O)N[C@@H](Cc1ccc(O)cc1)C(=O)N[C@@H](CCCCN)C(=O)N[C@@H](CCC(N)=O)C(=O)N[C@@H](CCCNC(=N)N)C(=O)N[C@H](C(=O)N[C@@H](CCCCN)C(=O)N[C@@H](CC(N)=O)C(=O)N[C@@H](CCCCN)C(N)=O)C(C)C)C(C)C)C(C)C)[C@@H](C)O [PACAP, pituitary adenylate cyclase activating peptide]
[1]
  competition for the 125I-GHRHa binding site: no competition; also recorded: did not compete
  displacement of GHRH in ovine pituitary: significant displacement

— patent US5852187A, “Molecular cloning of the ovine pituitary growth hormone releasing hormone receptor” (priority 1996, dated 1998)
